Results taken from the supplement of paper PMC7877785.
± gives the uncertainty stated by the source.

Assay: self-splicing fitness, log relative to wild type (ln ratio); higher = more splicing; Tetrahymena group I intron in knt gene, E. coli kanamycin selection, DiMSum; sequences stand for … in CUCUCU…GGAGGGAAAAGUUAUCAGGCAUGCACCUGGUAGCUAGUCUUUAAACCAAUAGAUUGCAUCGGUUUAAAAGGCAAGACCGUCAAAUUGCGGGAAAGGGGUCAACAGCCGUUCAGUACCAAGUCUCAGGGGAAACUUUGAGAUGGCCUUGCAAAGGGUAUGGUAAUAAGCUGACGGACAUGGUCCUAACCACGCAGCCAAGUCCUAAGUCAACAGAUCUUCUGUUGAUAUGGAUGCAGUUCACAGACUAAAUGUCGGUCGGGGAAGAUGUAUUCUUCUCAUAAGAUAUAGUCGGACCUCUCCUUAAUGGGAGCUAGCGGAUGAAGUGAUGCAACACUGGAGCCGCUGGGAACUAAUUUGUAUGCGAAAGUAUAUUGAUUAGUUUUGGAGUACUCGUGGUCG
How it was run: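 A randomised library covering all eight P1ex-region intron nucleotides was built with the intron in the knt kanamycin-resistance gene on pET-22b(+) and held in E. coli BL21(DE3). Cells were grown overnight at 37°C or 30°C on LB agar, with or without 25 μg/mL kanamycin, plus 100 μg/mL carbenicillin, 50 μM IPTG and 0.2% rhamnose, and pooled colonies were amplicon-sequenced on an Illumina HiSeq 2500. DiMSum fitness is the error-weighted combination of wild-type-normalised replicate fold changes, kanamycin versus none.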

Sequence | self-splicing fitness (ln) (30 °C) | self-splicing fitness (ln) (37 °C)
GUGUAGCAAUAUUACGUUGA | -1.73 ± 0.14 | -3.07 ± 0.36
CCCUAGCAAUAUUACGCAUA | -3.33 ± 0.27 | -1.99 ± 0.2
CGAAAGCAAUAUUACGUGGU | -3.92 ± 0.14 | -2.11 ± 0.13
UCGAAGCAAUAUUACGUGAU | -2.71 ± 0.16 | -1.37 ± 0.17
ACGCAGCAAUAUUACGACAG | -1.11 ± 0.076 | -0.445 ± 0.099
CAGCAGCAAUAUUACGUGUA | -2.97 ± 0.078 | -1.65 ± 0.072
GUUGAGCAAUAUUACGAAUA | -1.6 ± 0.16 | -1.44 ± 0.18
GAAUAGCAAUAUUACGCUGU | -3.12 ± 0.21 | -2.1 ± 0.15
UGUCAGCAAUAUUACGUCUG | -0.693 ± 0.1 | -0.104 ± 0.11
UUUUAGCAAUAUUACGUGCU | -2.43 ± 0.47 | -0.459 ± 0.22
UCCUAGCAAUAUUACGGAAU | -3.08 ± 0.15 | -2.1 ± 0.21
CAGGAGCAAUAUUACGCUGU | -3.13 ± 0.43 | -2.65 ± 0.44
CAUCAGCAAUAUUACGGGGA | -2.59 ± 0.14 | -1.22 ± 0.12
UAUCAGCAAUAUUACGACGC | -2.09 ± 0.13 | -0.508 ± 0.13
UUAAAGCAAUAUUACGCGGA | -0.811 ± 0.097 | 0.458 ± 0.1
CAAAAGCAAUAUUACGUCGC | -4.14 ± 0.28 | -2.35 ± 0.25
GUACAGCAAUAUUACGUGCU | -3.17 ± 0.18 | -3.14 ± 0.24
UAGGAGCAAUAUUACGCAAG | – | -0.879 ± 0.22
CUUAAGCAAUAUUACGACCA | -3.3 ± 0.4 | -2.04 ± 0.4
GAUCAGCAAUAUUACGUUCG | -1.33 ± 0.063 | 0.136 ± 0.073
AUCGAGCAAUAUUACGUACU | -1.09 ± 0.15 | -0.28 ± 0.17

Sequence | self-splicing fitness (ln) (30 °C) | self-splicing fitness (ln) (37 °C)
ACUAAGCAAUAUUACGAUCC | -1.02 ± 0.14 | -0.609 ± 0.16
UGCAAGCAAUAUUACGAUGA | -0.161 ± 0.093 | 0.0415 ± 0.097
AUCUAGCAAUAUUACGACAG | -3.33 ± 0.3 | -2.68 ± 0.31
GUCUAGCAAUAUUACGCAGU | -1.25 ± 0.13 | 0.0079 ± 0.15
GGCCAGCAAUAUUACGAACG | -2.65 ± 0.41 | -0.764 ± 0.3
GUUCAGCAAUAUUACGAUCG | -0.518 ± 0.13 | -0.548 ± 0.16
GUUCAGCAAUAUUACGGUUU | -0.523 ± 0.052 | -0.0386 ± 0.061
GAGCAGCAAUAUUACGACCA | -1.17 ± 0.14 | -1.02 ± 0.15
GUUCAGCAAUAUUACGAUCA | -1.81 ± 0.19 | -0.536 ± 0.14
UCCGAGCAAUAUUACGCCAC | -2.05 ± 0.4 | –
UAUAAGCAAUAUUACGCUCA | -0.3 ± 0.14 | 0.688 ± 0.21
GUUUAGCAAUAUUACGCCAA | -1.57 ± 0.27 | -1.58 ± 0.24
UUCGAGCAAUAUUACGUGGU | -3.49 ± 0.28 | -3.18 ± 0.2
ACGCAGCAAUAUUACGCACC | -0.334 ± 0.18 | -0.22 ± 0.18
UCCGAGCAAUAUUACGUGAC | -4.99 ± 0.41 | -2.66 ± 0.29
GCUCAGCAAUAUUACGUUGG | -1.96 ± 0.17 | -2.46 ± 0.19
GUCUAGCAAUAUUACGAGCU | -2.17 ± 0.33 | -0.962 ± 0.23
GGUAAGCAAUAUUACGUACU | -1.82 ± 0.32 | –
UUCUAGCAAUAUUACGCCGA | -0.96 ± 0.23 | 0.163 ± 0.25
UGCCAGCAAUAUUACGUAAU | -2.36 ± 0.14 | -2.16 ± 0.18
GGGCAGCAAUAUUACGCCGG | -1.51 ± 0.11 | 0.118 ± 0.14

Sequence | self-splicing fitness (ln) (30 °C) | self-splicing fitness (ln) (37 °C)
CGUUAGCAAUAUUACGAACG | -2.85 ± 0.3 | -2.62 ± 0.38
GUUUAGCAAUAUUACGAUUA | -1.93 ± 0.16 | -1.01 ± 0.2
GGCGAGCAAUAUUACGCGAC | -2.61 ± 0.42 | –
AUCGAGCAAUAUUACGAUCA | – | -0.193 ± 0.26
AGAAAGCAAUAUUACGACGA | -0.322 ± 0.13 | 0.0397 ± 0.12
GGAUAGCAAUAUUACGGCUG | -0.385 ± 0.14 | -0.733 ± 0.18
GAGUAGCAAUAUUACGAAGG | – | -2.74 ± 0.44
CUUAAGCAAUAUUACGCGCU | -3.35 ± 0.22 | -2.5 ± 0.27
CCAAAGCAAUAUUACGUAGU | -3.67 ± 0.15 | -3.14 ± 0.14
AUAAAGCAAUAUUACGAAUC | -4.22 ± 0.42 | -1.31 ± 0.22
ACUUAGCAAUAUUACGGAAA | -2.19 ± 0.27 | -2.09 ± 0.26
GUAAAGCAAUAUUACGCCCG | 0.162 ± 0.18 | -0.247 ± 0.19
UAUCAGCAAUAUUACGGUUA | -0.0611 ± 0.064 | 0.0198 ± 0.07
UCUCAGCAAUAUUACGAUGG | -0.935 ± 0.11 | -1 ± 0.14
GCCCAGCAAUAUUACGGGAA | 0.0209 ± 0.051 | 0.313 ± 0.06
AGCCAGCAAUAUUACGGGCU | -4.03 ± 0.25 | -2.5 ± 0.21
AUCGAGCAAUAUUACGGAGG | -1.89 ± 0.39 | -0.942 ± 0.25
AUUGAGCAAUAUUACGCGUA | – | -1.87 ± 0.31
CACGAGCAAUAUUACGAGAA | – | -1.61 ± 0.44
ACUAAGCAAUAUUACGUAAA | -2.48 ± 0.13 | -1.6 ± 0.14
